Data from the supplement of paper PMC12764529.
± gives the half width of the 95% confidence interval.

Tests used:
[1] = folding stability dG unfold from chymotrypsin proteolysis; higher = more stable
Experimental: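 Folding stability of de novo designed mini-proteins (<80 aa, no Cys; designed by TrROS, TrMRF, ProteinMPNN and the joint model) was measured by cDNA display proteolysis with trypsin and chymotrypsin. Each protease was used at 11 concentrations in a threefold dilution series plus a no-protease condition. K50 was inferred by Bayesian fitting of sequencing counts, and dG unfold was derived against a sequence-predicted unfolded-state K50 (Tsuboyama et al. method). Sequences shown include variable-length N-terminal GS-type padding (SAGGSAGG...) inside a display construct carrying a PA tag. Rows were kept only if the AF2 dimer inter-PAE was >15, to exclude likely homo-oligomers.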

[2] = folding stability dG unfold (combined trypsin and chymotrypsin); higher = more stable
Summary of the method: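 Only designs with AlphaFold2 dimer inter-PAE above 15 were retained; each was a mini-protein under 80 residues with no cysteine, in a PA-tagged cDNA display construct. After digestion with trypsin and chymotrypsin and sequencing, K50 was inferred by Bayesian fitting of counts, and unfolding free energy was derived per protease or combined against a sequence-predicted unfolded-state K50 and a shared folded-state K50.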

## SAGGSAGGSAGGSPVLKTEEKALPNGTVVTTEFLPGGRRREVITPPDGTVKVVEREIERSAGGSAGGSAGGS [r10_1184_JUSTAS]
[1]
  folding stability dG unfold: 0.356 ± 0.019 kcal/mol
[2]
  folding stability dG unfold: -0.0994 ± 0.095 kcal/mol

## SAGGSAGGSAGNADQIKEIARKYAPKNGMKPKDVDIEVEERENPNGKKELHIDVEGEYKNSAGGSAGGSAGG [r11_414_TrROS]
[1]
  folding stability dG unfold: 0.00121 ± 0.46 kcal/mol
[2]
  folding stability dG unfold: < -1 kcal/mol

## SAGGSAGGSGPALANIPPDAKVTVTPLPDDSYLVDIYYPNGPVEYLDVPVGDKWVKFEVEPEKSAGGSAGGS [r20_50_TrMRF]
[1]
  folding stability dG unfold: -0.749 ± 0.24 kcal/mol
[2]
  folding stability dG unfold: < -1 kcal/mol

## SAGGMTVTVPFTSEEELEAAIEAAPSSLTTVTTTDPARGLRRTLNVDPATRAVVETEEEAVDPEDPALSAGG [r13_945_JUSTAS]
[1]
  folding stability dG unfold: -0.377 ± 0.14 kcal/mol
[2]
  folding stability dG unfold: < -1 kcal/mol

## SAGGSASVSYDPTPGPTRRTTTLLETEEVGPNLKRVKTKVTLFPSDGVPTTSTVTELDLVPPPELPSAGGSA [r15_1035_JUSTAS]
[1]
  folding stability dG unfold: 0.527 ± 0.057 kcal/mol
[2]
  folding stability dG unfold: 0.128 ± 0.11 kcal/mol

## SAGEVETRTLPDGSVEIRRVERDPNSDQEVETRERVTFDPATGTARVPREVYRGDRWETEERVIALPASAGG [r19_289_JUSTAS]
[1]
  folding stability dG unfold: 0.456 ± 0.16 kcal/mol
[2]
  folding stability dG unfold: -0.38 ± 0.27 kcal/mol

## SAGGSAMKTAEVVLDVPEEELEAARAAGEGLSAEVRARMEALAAEVRAAGYDEVVLRLRPSSVPLPSAGGSA [r15_304_JUSTAS]
[1]
  folding stability dG unfold: -0.0294 ± 0.24 kcal/mol
[2]
  folding stability dG unfold: < -1 kcal/mol

## SAGGSAGGSKKWIPIDSPSEIEDLLEKAPPGGKLKIYNNNGQTEKVPPNEIERTPNHWWIEVDSAGGSAGGS [r12_907_TrROS]
[1]
  folding stability dG unfold: 0.314 ± 0.17 kcal/mol
[2]
  folding stability dG unfold: -0.463 ± 0.45 kcal/mol

## SAGGSAGGSAGGPPVLTVTRYPPTPYLTVTLPGGRPVVLPVHPDTPPSDVLRLARELTASAGGSAGGSAGGS [r10_33_TrMRF]
[1]
  folding stability dG unfold: -0.163 ± 0.26 kcal/mol
[2]
  folding stability dG unfold: < -1 kcal/mol

## SAGGSAGGSAGGMPPVEIVEIVNSPGKNPVIVLDPATGEPRLIEVPPDVTLTPEMARRESAGGSAGGSAGGS [r10_844_JUSTAS]
[1]
  folding stability dG unfold: 0.838 ± 0.066 kcal/mol
[2]
  folding stability dG unfold: 0.0501 ± 0.2 kcal/mol

## SAGGSAGGSPMPILSASADPGPDGTRTLTLRLGDKTVTFTVPASRPALIPAPADSVISLDPAGSAGGSAGGS [r12_373_TrMRF]
[1]
  folding stability dG unfold: -0.467 ± 0.14 kcal/mol
[2]
  folding stability dG unfold: -0.64 ± 0.16 kcal/mol

## SAGGSAGGSAGGSKLKEGEKYKVYFKKTKKELEVETLEQLKALEKAGKKVEIVKIEKVPSAGGSAGGSAGGS [r4_214_TrROS_Hall]
[1]
  folding stability dG unfold: 0.153 ± 0.21 kcal/mol
[2]
  folding stability dG unfold: -0.269 ± 0.14 kcal/mol

## SAKKHIPIPMDDPENLKKAIEEALENAENGKKVEIPIRSPDGPVWIEVDPKKKDIKIRNPGNGEERKIKSAG [r14_423_TrROS]
[1]
  folding stability dG unfold: 0.228 ± 0.084 kcal/mol
[2]
  folding stability dG unfold: -0.0974 ± 0.53 kcal/mol

## SAGGSAGGSAMKLTKEYVFTKTITLKNGKTKTESEVLTEEVPPIPLEELIKRLGLPPEELISAGGSAGGSAG [r3_338_JUSTAS]
[1]
  folding stability dG unfold: -0.126 ± 0.44 kcal/mol
[2]
  folding stability dG unfold: -0.186 ± 0.32 kcal/mol

## SAGGKKKVVIKVEVKNKKTGKTFEKEIVIEIDENETEEQILEKAKELAKKLAEENGLEVKIVEIKPLSAGGS [r8_312_TrROS_Hall]
[1]
  folding stability dG unfold: 3.84 ± 0.18 kcal/mol
[2]
  folding stability dG unfold: 4.43 ± 0.25 kcal/mol

## SAGGSAGGAEKIKKKLEELGFEIVKIEKESENKIKIYVKPDNPEKIKEIKEKISSSEVDEIGNESAGGSAGG [r6_83_TrMRF]
[1]
  folding stability dG unfold: 0.486 ± 0.16 kcal/mol
[2]
  folding stability dG unfold: -0.27 ± 0.17 kcal/mol

## SAGGSAGGMTPEEIRDALAAKLRAADPDVEVRPVRQEGDEVVVVVTRPATGERREVRVPADVPLSAGGSAGG [r6_446_JUSTAS]
[1]
  folding stability dG unfold: 0.406 ± 0.19 kcal/mol
[2]
  folding stability dG unfold: -0.0965 ± 0.18 kcal/mol

## SAMIEVYRPPDRALVKLPSGKVEILDDPEAFEARVRAESDLPIRVTPLSPESPEFKALLEEIEKKLKGKSAG [r14_235_JUSTAS]
[1]
  folding stability dG unfold: 0.192 ± 0.18 kcal/mol
[2]
  folding stability dG unfold: 0.0988 ± 0.31 kcal/mol

## SAGGSAGGSAAEPPPPATIEVLVLNEDGYVYRAEIRVNEDGEITIEVEKIPVKPGESLEELSAGGSAGGSAG [r3_437_TrROS_Hall]
[1]
  folding stability dG unfold: 4 ± 0.23 kcal/mol
[2]
  folding stability dG unfold: 3.79 ± 0.35 kcal/mol

## SAGGPDPYNLKVEEETYPNPDGGEMKIPKIEIPDGRLKIDMEMRNPGNGKEHEHEITIPVKPGQEIFISAGG [r13_190_TrROS]
[1]
  folding stability dG unfold: 0.906 ± 0.14 kcal/mol
[2]
  folding stability dG unfold: 0.0459 ± 0.21 kcal/mol

## SAGGLEEVAQELEAQGGEVEVRKVGGGSTEITVRLREPEAPRLLEVRLSLPPAGARLQVLSREALPPSAGGS [r16_613_JUSTAS]
[1]
  folding stability dG unfold: -0.704 ± 0.51 kcal/mol
[2]
  folding stability dG unfold: < -1 kcal/mol

## SAGGSAGGSAGGSGSTTPIPATGATLTTETLPDGSPLYTLTDPATGATTTYPPGAPVGLSAGGSAGGSAGGS [r4_158_JUSTAS]
[1]
  folding stability dG unfold: -0.26 ± 0.07 kcal/mol
[2]
  folding stability dG unfold: < -1 kcal/mol

## SAGGSAGGSAGGSSSMVEVEVESEEELEAYLEPLAARGVEVTLTSRDPETGRWLLRVTPPSAGGSAGGSAGG [r7_964_JUSTAS]
[1]
  folding stability dG unfold: 0.233 ± 0.2 kcal/mol
[2]
  folding stability dG unfold: -0.0911 ± 0.2 kcal/mol
